Target: T1, 35S-MCM (T.acidophilum MCM labeled with 35S-Met) (Thermoplasma acidophilum, UniProt Q9HK10 1-698, 35S-Met)
T1 sequence (looked up): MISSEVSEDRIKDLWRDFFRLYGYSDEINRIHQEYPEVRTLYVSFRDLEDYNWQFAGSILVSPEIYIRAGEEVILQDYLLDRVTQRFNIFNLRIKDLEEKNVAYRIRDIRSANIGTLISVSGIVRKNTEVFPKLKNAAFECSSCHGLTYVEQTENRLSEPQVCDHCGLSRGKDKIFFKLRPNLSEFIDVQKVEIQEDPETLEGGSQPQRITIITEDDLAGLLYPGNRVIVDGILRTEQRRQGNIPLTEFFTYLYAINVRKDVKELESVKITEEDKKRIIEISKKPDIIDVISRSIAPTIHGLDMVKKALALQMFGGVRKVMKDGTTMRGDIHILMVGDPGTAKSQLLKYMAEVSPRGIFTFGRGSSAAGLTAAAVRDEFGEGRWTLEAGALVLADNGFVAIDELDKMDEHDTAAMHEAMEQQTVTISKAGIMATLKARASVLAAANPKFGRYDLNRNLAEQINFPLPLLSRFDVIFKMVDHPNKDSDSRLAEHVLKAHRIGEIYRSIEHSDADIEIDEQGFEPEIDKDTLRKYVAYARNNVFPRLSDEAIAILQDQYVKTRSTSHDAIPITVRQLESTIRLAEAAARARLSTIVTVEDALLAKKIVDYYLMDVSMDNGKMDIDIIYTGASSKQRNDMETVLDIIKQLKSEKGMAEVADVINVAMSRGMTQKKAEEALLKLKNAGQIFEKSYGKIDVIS
Assay: pull-down

B1: T.acidophilum Cdc6-2 (Ta0636), C-terminal six His-tag (natural protein, Thermoplasma acidophilum, UniProt Q9HKG3 1-404, looked up)
chain: MDNPFARFAGTRTIQANLSLLEENYVPDSFPHRENQINEMVTILSSIMRGSRPSNIIVYGKTGTGKTSTTKYVTKMLVEAASNVSVVYVNCEIYDSPYSILVAIANSAGEEKIPELGWPIDRIYRETVERVEKTGKFFIIILDEMDRLIKKNGGDSLYVLLKLMTDVDSVRVSMIGITNDTTVLENIDARIKSRLNQESIVFPPYNASEIRDIISSRLDKVLGPGVVDDTAINLCAAIGAQEHGDARKAIDLMRIAIEIAIRENRNKITENEIYEARERYEMNVLREAISTLPLHSKIVLLSAVVTQEIEPNSVITGEIYENYRRICDDLGFSPLSPRRISDLLTELADYGLLVMDDRNMGKYGRTRSFSVVHQAETIKKYLLEDENLSMFKSSKMPKQTRFDT
binding result: binds

— article PMC1669734 (Nucleic Acids Research, 2006)
